From article PMC6753139, “TRIM66 reads unmodified H3R2K4 and H3K56ac to respond to DNA damage in embryonic stem cells” (Nature Communications, 2019)
Entries after “also recorded” stand apart in the source; their conditions may differ.

Legend:
TRIM66-WT965-1160 = target: T1, TRIM66-WT965-1160 (Homo sapiens, UniProt O15016); assay: ITC, PHD-Bromodomain wild type; format: binding; settings: ITC, 25 °C, pH 7.5
T1 construct: ITC titration: titrating TRIM66-WT965-1160 with various histone H3 peptides; GST (N, cleaved yes); made in house; host or cells: Escherichia coli BL21 (DE3)
T1 sequence (O15016 1100-1295): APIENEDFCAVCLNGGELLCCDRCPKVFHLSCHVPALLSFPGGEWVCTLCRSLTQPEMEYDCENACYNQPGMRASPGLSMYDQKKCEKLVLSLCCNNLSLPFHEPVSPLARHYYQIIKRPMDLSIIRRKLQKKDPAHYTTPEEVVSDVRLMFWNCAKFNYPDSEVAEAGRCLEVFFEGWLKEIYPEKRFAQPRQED
Text: We next performed the glutathione S-transferase (GST) pulldown assays of the TRIM66-WT965-1160 against the calf thymus histones to verify the histone-binding ability of TRIM66 PHD-Bromodomain. […] The PHD of TRIM66 shared a low conservation with those of ING4, PHF2, and BPTF, and lacked the conserved aromatic residues, which were necessary for binding H3K4me2/3[40]–[42] (Supplementary Fig. 2b). Nevertheless, TRIM66 was highly conserved in sequence and structure with the PHDs of TRIM24 and TRIM33 (Fig. 1c and Supplementary Fig. 2b), which were reported to bind H3K4me0[5],[6]; thus, we speculated that the PHD of TRIM66 could bind H3K4me0. To verify this hypothesis, we performed isothermal titration calorimetry (ITC)-based binding assays. […] Based on previous researches reporting the acetyl-lysine binding partners of Bromodomain[3]–[12], we chose a series of related peptides derived from H3 and H4, to test their interactions with TRIM66-WT965-1160 by ITC experiments. […] We further found the acetylated state of K56 was necessary for this binding (Supplementary Fig. 3b).
We next titrated the TRIM66-WT965-1160 with a series of R2-methylated H3 peptides through ITC assays. […] This finding was consistent with the structural observation that each NηH atom of the R2 formed a hydrogen bond with residues in protein (Fig. 2d).
The DNA fragments of human TRIM66_968-1160, TRIM24_824-1006, and TRIM33_882-1087 were amplified from a human bone marrow cDNA library using a PCR-based cloning strategy. The fragments of TRIM66-WT968-1160 were inserted into a pGEX-4T-1 plasmid (GE Healthcare). The fragments of TRIM24_824-1006 and TRIM33_882-1087 were ligated into a pET-SUMO-28a (+) plasmid (Novagen). The DNA fragments of TRIM66-MUT968-1160 and TRIM66-WT965-1160 with codon optimization were synthesized by General Biosystems (sequence was shown in Supplementary Methods) and inserted into a pGEXT-4T-1 plasmid (GE Healthcare). Mutants of TRIM66 PHD-Bromo were generated through PCR using the Mutant Best kit (Takara). The mutation of point mutant based on the codon-optimized DNA sequence of TRIM66-WT965-1160. All constructs were expressed in Escherichia coli BL21 (DE3). The construct of ASF1a1-156 inserted into a pRSFDuet plasmid (courtesy of Ruiming Xu Lab, Institute of Biophysics, Chinese Academy of Sciences) was expressed in E. coli BL21 (DE3) RIL. The construct of full-length H4 inserted into a pET3a plasmid was expressed in E. coli BL21 (DE3). The expression of full-length histone H3K56ac was performed in BL21 (DE3) cells transformed with pBK-AxcKRS3 and pET22b encoding H3 with amber codons at the K56 site[12]. The DNA fragment of full-length TRIM66 was synthesized by General Biosystems and ligated into fugw vector (Addgene). See the information of protein sequence in Supplementary Table 1.
(§1) The calorimetric experiments were performed at 25 °C using a MicroCal PEAQ-ITC. The proteins were dialyzed using a buffer containing 20 mM Tris and 100 mM NaCl at pH 7.5. Lyophilized peptides were dissolved in the same buffer and adjusted to pH 7.5 prior to use. Peptide concentrations were estimated from the quantitative NMR experiments[73],[74]. ITC measurements were performed via injection of 0.7–4 mM peptide into a cell containing 0.12 mM TRIM24-PHD-Bromo, 0.05 mM TRIM33 PHD-Bromo, and 0.05 or 0.11–0.15 mM TRIM66-PHD-Bromo (or its mutants). The ITC data were subsequently analyzed using the MicroCal PEAQ-ITC analysis software.

TRIM66-GSGS968-1160 = target: T2, TRIM66-GSGS968-1160 (Homo sapiens, UniProt O15016, A1173S/DEL1165-1171/P1175S/R1172G/S1174G); assay: ITC, NMR mutant protein; format: binding; settings: 25 °C, 20 mM Tris, 100 mM NaCl, pH 7.5, single measurement
T2 construct: We created a mutant protein (termed TRIM66-GSGS968-1160;); GST (N, cleaved yes); made in house; host or cells: Escherichia coli BL21 (DE3)
T2 sequence (O15016 with tags, fused parts or gaps DEL1165-1171/R1172G/A1173S/S1174G/P1175S): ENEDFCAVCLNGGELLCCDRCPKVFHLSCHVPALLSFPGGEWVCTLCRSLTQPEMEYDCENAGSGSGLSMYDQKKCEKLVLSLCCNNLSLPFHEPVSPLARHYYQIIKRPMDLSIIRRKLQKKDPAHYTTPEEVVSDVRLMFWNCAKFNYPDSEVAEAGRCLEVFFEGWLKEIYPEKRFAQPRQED
Procedure: To investigate the interaction between the H3K56ac peptide and the TRIM66 PHD-Bromodomain, we performed a nuclear magnetic resonance (NMR) titration experiment. We created a mutant protein (termed TRIM66-GSGS968-1160; Supplementary Fig. 1e, Supplementary Fig. 7a, b, Supplementary Table 1, and Supplementary Note 2).
as §1, with “software. […]” for “software.”
protein (TRIM66-WT965-1160) in all the ITC and GST pull down interaction assays. Meanwhile, the […]
experiments and crystal experiment, respectively. […]
combinational manner (Fig. 1d). To further figure out the binding mode between the TRIM66 PHD-Bromodomain and the united H3(1-15)-(48-57) K56ac peptide, we performed a NMR titration experiment and carefully analyzed the linewidth changes of TRIM66 -GSGS968-1160 (this protein is […]

TRIM33_882-1087 = target: T3, TRIM33_882-1087 (Homo sapiens, UniProt Q9UPN9); assay: ITC, PHD-Bromodomain; settings: 25 °C, 20 mM Tris, 100 mM NaCl, pH 7.5, single measurement, error from curve fit, Weak binding = ITC curves cannot be fitted reliably
T3 construct: The fragments of TRIM24_824-1006 and TRIM33_882-1087 were ligated into a pET-SUMO-28a (+) plasmid; His-SUMO (N, cleaved yes); made in house; host or cells: Escherichia coli BL21 (DE3)
T3 sequence (Q9UPN9 882-1087): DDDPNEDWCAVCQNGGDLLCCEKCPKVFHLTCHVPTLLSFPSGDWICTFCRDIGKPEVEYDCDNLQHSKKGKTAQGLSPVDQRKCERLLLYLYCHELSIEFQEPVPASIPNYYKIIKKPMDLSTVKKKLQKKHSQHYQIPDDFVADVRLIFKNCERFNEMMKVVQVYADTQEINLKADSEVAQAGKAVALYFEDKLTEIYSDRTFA
Text: (§2) We subsequently compared the complex structure of TRIM24, TRIM33, and TRIM66 with H3 peptide. […] (Fig. 2d). […] However, they were sensitive to H3R2me2s (Table 2, Supplementary Fig. 5b, c, and Supplementary Table 2).
(§3) The DNA fragments of human TRIM66_968-1160, TRIM24_824-1006, and TRIM33_882-1087 were amplified from a human bone marrow cDNA library using a PCR-based cloning strategy. The fragments of TRIM66-WT968-1160 were inserted into a pGEX-4T-1 plasmid (GE Healthcare). The fragments of TRIM24_824-1006 and TRIM33_882-1087 were ligated into a pET-SUMO-28a (+) plasmid (Novagen). The DNA fragments of TRIM66-MUT968-1160 and TRIM66-WT965-1160 with codon optimization were synthesized by General Biosystems (sequence was shown in Supplementary Methods) and inserted into a pGEXT-4T-1 plasmid (GE Healthcare). Mutants of TRIM66 PHD-Bromo were generated through PCR using the Mutant Best kit (Takara). The mutation of point mutant based on the codon-optimized DNA sequence of TRIM66-WT965-1160. All constructs were expressed in Escherichia coli BL21 (DE3). […]
(§4) The calorimetric experiments were performed at 25 °C using a MicroCal PEAQ-ITC. […] Peptide concentrations were estimated from the quantitative NMR experiments[73],[74]. […] The ITC data were subsequently analyzed using the MicroCal PEAQ-ITC analysis software.

TRIM24_824-1006 = target: T4, TRIM24_824-1006 (Homo sapiens, UniProt O15164); assay: ITC, PHD-Bromodomain; settings: 25 °C, 20 mM Tris, 100 mM NaCl, pH 7.5, single measurement, error from curve fit, Weak binding = ITC curves cannot be fitted reliably
T4 construct: The fragments of TRIM24_824-1006 and TRIM33_882-1087 were ligated into a pET-SUMO-28a (+) plasmid; His-SUMO (N, cleaved yes); made in house; host or cells: Escherichia coli BL21 (DE3)
T4 sequence (O15164 824-1006): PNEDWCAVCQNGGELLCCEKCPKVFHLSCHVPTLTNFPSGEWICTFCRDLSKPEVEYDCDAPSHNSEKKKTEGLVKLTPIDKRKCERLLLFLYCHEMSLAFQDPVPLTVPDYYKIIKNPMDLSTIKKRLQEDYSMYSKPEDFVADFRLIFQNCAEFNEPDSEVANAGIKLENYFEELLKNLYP
Text: as §2, §3, §4

[1] = MicroCal PEAQ-ITC, 20 mM Tris, 100 mM NaCl, single measurement, error from curve fit, Weak binding = ITC curves cannot be fitted reliably, N.D. = no detectable binding

Kd (TRIM66-WT965-1160; [1])	Kd (TRIM66-GSGS968-1160)	KD (TRIM33_882-1087)	KD (TRIM24_824-1006)	Molecule	binding (in words) (TRIM66-WT965-1160)	KD (TRIM66-WT965-1160; [1])
109 µM	127 ± 9.53 µM	–	–	CC[C@H](C)[C@H](NC(=O)[C@H](CCC(=O)O)NC(=O)[C@H](CCCNC(=N)N)NC(=O)[C@@H](N)CC(C)C)C(=O)N[C@@H](CCCNC(=N)N)C(=O)N[C@@H](CCCNC(=N)N)C(=O)N[C@@H](Cc1ccc(O)cc1)C(=O)N[C@@H](CCC(N)=O)C(=O)N[C@@H](CCCCNC(C)=O)C(=O)N[C@@H](CO)C(=O)O [H3_48-57K56ac]	–	–
–	–	Weak binding	Weak binding	H3R2me2s: symmetrically dimethylated H3R2 peptide	obvious reduction in their binding affinities	Weak binding; also recorded: ^aWeak binding
